Like-named read-outs stand apart in the source and are kept apart here.
Tests used:
[1] = molecular target: T1, human IL-2 receptor beta chain extracellular domain (ECD) (human, UniProt P14784 27-240); assay: ELISA; polyvinyl chloride plates coated with human beta chain ECD; purified phage preparations of individual clones; bound phages detected with anti-M13-HRP; relative reactivity = signal on beta chain / signal on 9E10 (anti-c-myc); settings: both partners purified
T1 construct: human IL-2 receptor beta subunit (CD122), recombinant extracellular domain; Coated on immunotubes for panning and on plates for phage ELISA; also called hIL-2R beta subunit ECD; beta chain ECD; source: bought: R&D Systems
T1 sequence (looked up): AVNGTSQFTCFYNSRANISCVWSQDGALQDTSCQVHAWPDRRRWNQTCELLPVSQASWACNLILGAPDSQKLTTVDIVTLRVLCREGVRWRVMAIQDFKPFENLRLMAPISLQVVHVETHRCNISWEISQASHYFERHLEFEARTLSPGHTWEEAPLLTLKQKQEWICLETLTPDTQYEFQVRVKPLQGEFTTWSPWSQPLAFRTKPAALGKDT

[2] = molecular target: T2, H9(K35E)/Fc in which F92 was replaced by the phage-selected Leu (human, UniProt P60568 21-153, K35E | L80F | R81D | L85V | I86V | I92L); assay: SPR
H9(K35E)/Fc [3] = molecular target: T3, H9(K35E)/Fc (human, UniProt P60568 21-153, K35E | L80F | R81D | L85V | I86V | I92F); assay: SPR
IL-2(K35E)/Fc [4] = molecular target: T4, IL-2(K35E)/Fc (human, UniProt P60568 21-153, K35E); assay: SPR
[5] = molecular target: T5, H9(K35E)/Fc in which F92 was replaced by the original Ile (human, UniProt P60568 21-153, K35E | L80F | R81D | L85V | I86V); assay: SPR
[6] = molecular target: T6, fusion protein containing I92L-hIL-2 (K35E, human IgG1 Fc) (human, UniProt P60568 21-153, K35E | I92L); assay: SPR
[7] = molecular target: T7, 80FDPHDVVE87 + I92L + V93L(K35E)/Fc (human, UniProt P60568 21-153, K35E | L80F | R81D | R83H (from the name 80FDPHDVVE87) | L85V | I86V | S87E | …); assay: SPR
[8] = molecular target: T8, 80VPPEDLIA87 + I92L(K35E)/Fc (human, UniProt P60568 21-153, K35E | L80V (from the name 80VPPEDLIA87) | R81P (from the name 80VPPEDLIA87) | …); assay: SPR
H9(K35E)/Fc [9] = molecular target: T3, H9(K35E)/Fc; assay: SPR; remark: listed apart in the source
IL-2(K35E)/Fc [10] = molecular target: T4, IL-2(K35E)/Fc; assay: SPR; remark: listed apart in the source
[11] = molecular target: T9, 80FDPEDVVE87 + I92L(K35E)/Fc (human, UniProt P60568 21-153, K35E | L80F | R81D | R83 was replaced by either Ala or Glu (here Glu) | L85V | …); assay: SPR
[12] = molecular target: T10, 80FDPADVVE87 + I92L(K35E)/Fc (human, UniProt P60568 21-153, K35E | L80F | R81D | R83 was replaced by either Ala or Glu (here Ala) | L85V | …); assay: SPR
[13] = molecular target: T11, 80VPPEDLIE87 + I92L(K35E)/Fc (human, UniProt P60568 21-153, K35E | L80V (from the name 80VPPEDLIE87) | R81P (from the name 80VPPEDLIE87) | …); assay: SPR
[14] = molecular target: T2, H9(K35E)/Fc in which F92 was replaced …; assay: SPR; remark: listed apart in the source
H9(K35E)/Fc [15] = molecular target: T3, H9(K35E)/Fc; assay: SPR; remark: listed apart in the source
IL-2(K35E)/Fc [16] = molecular target: T4, IL-2(K35E)/Fc; assay: SPR; remark: listed apart in the source
[17] = molecular target: T5, H9(K35E)/Fc in which F92 was replaced …; assay: SPR; remark: listed apart in the source
[18] = molecular target: T6, fusion protein containing I92L-hIL-2 …; assay: SPR; remark: listed apart in the source
[19] = molecular target: T7, 80FDPHDVVE87 + I92L + V93L(K35E)/Fc; assay: SPR; remark: listed apart in the source
[20] = molecular target: T8, 80VPPEDLIA87 + I92L(K35E)/Fc; assay: SPR; remark: listed apart in the source
H9(K35E)/Fc [21] = molecular target: T3, H9(K35E)/Fc; assay: SPR; remark: listed apart in the source
IL-2(K35E)/Fc [22] = molecular target: T4, IL-2(K35E)/Fc; assay: SPR; remark: listed apart in the source
[23] = molecular target: T9, 80FDPEDVVE87 + I92L(K35E)/Fc; assay: SPR; remark: listed apart in the source
[24] = molecular target: T10, 80FDPADVVE87 + I92L(K35E)/Fc; assay: SPR; remark: listed apart in the source
[25] = molecular target: T11, 80VPPEDLIE87 + I92L(K35E)/Fc; assay: SPR; remark: listed apart in the source

B1: phage-displayed hIL-2 variant 2B (S2 library) (ligand, human, UniProt P60568 23-153, looked up)
chain: TSSSTKKTQLQLEHLLLDLQMILNGINNYKNPKLTRMLTFKFYMPKKATELKHLQCLEEELKPLEEVLNLAQSKNFHVPPEDLIANINVLVLELKGSETTFMCEYADETATIVEFLNRWITFCQSIISTLT
notes: No K35E on the phage
B1: binds [1].

B2: recombinant fusion protein comprising human IL-2R beta subunit extracellular domain and mouse IgG2a Fc (Fc fusion)
chain: AVNGTSQFTCFYNSRANISCVWSQDGALQDTSCQVHAWPDRRRWNQTCELLPVSQASWACNLILGAPDSQKLTTVDIVTLRVLCREGVRWRVMAIQDFKPFENLRLMAPISLQVVHVETHRCNISWEISQASHYFERHLEFEARTLSPGHTWEEAPLLTLKQKQEWICLETLTPDTQYEFQVRVKPLQGEFTTWSPWSQPLAFRTKPAALGKDT
B2 gave a koff [2] of 0.000298 s⁻¹, a koff (H9(K35E)/Fc [3]) of 0.000218 s⁻¹ and a koff (IL-2(K35E)/Fc [4]) of 0.00308 s⁻¹. For the same binder, the koff [5] was 0.000251 s⁻¹, the koff [6] was 0.00113 s⁻¹ and the Kd [7] was 1.12 nM. The Kd [8] was 0.8 nM, the Kd (H9(K35E)/Fc [9]) was 4.09 nM and the Kd (IL-2(K35E)/Fc [10]) was 106 nM. The Kd [11] was 0.29 nM, the Kd [12] was 0.54 nM and the Kd [13] was 0.37 nM. For the same binder, the Kd [14] was 3.35 nM, the Kd (H9(K35E)/Fc [15]) was 4.47 nM and the Kd (IL-2(K35E)/Fc [16]) was 103 nM. It also gave a Kd [17] of 3.84 nM, a Kd [18] of 36.5 nM and a koff [19] of 0.000266 s⁻¹. The koff [20] was 0.000349 s⁻¹, the koff (H9(K35E)/Fc [21]) was 0.000395 s⁻¹ and the koff (IL-2(K35E)/Fc [22]) was 0.00326 s⁻¹. It also gave a koff [23] of 0.000273 s⁻¹, a koff [24] of 0.000461 s⁻¹ and a koff [25] of 0.000304 s⁻¹.

From PMC10412584, “Molecular reshaping of phage-displayed Interleukin-2 at beta chain receptor interface to obtain potent super-agonists with improved developability profiles” (Communications Biology, 2023)
